Here are results for 1 molecule from publication PMC3625871.

The data set has as its target T1, AtVOZ2m (Arabidopsis thaliana, UniProt Q9SLB9 1-450, C249A;H253A).
T1 sequence: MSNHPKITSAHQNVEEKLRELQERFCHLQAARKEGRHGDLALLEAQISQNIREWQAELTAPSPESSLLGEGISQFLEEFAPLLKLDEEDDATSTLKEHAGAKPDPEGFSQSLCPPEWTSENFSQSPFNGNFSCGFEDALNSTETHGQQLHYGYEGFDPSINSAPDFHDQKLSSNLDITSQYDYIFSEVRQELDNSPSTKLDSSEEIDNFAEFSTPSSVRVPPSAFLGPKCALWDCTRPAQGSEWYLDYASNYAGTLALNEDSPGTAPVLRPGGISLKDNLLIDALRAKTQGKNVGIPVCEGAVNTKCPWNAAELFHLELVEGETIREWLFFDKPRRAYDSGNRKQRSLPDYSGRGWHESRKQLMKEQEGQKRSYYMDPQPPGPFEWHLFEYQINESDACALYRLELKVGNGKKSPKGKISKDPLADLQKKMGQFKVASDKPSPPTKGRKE
Description: EMSA.

B1: pMOS3 (dsDNA)
DNA 1: GACGTCCGGCGCAGCGTTTATCAGACGCTGGGATTAAAACA
DNA 2: TGTTTTAATCCCAGCGTCTGATAAACGCTGCGCCGGACGTC
As for B1, the binding result is listed as “no binding”.
